This note sets out measurements from paper PMC3569036 (FEBS letters, 2012).

The test addresses calmodulin (vertebrate CaM amino acid sequence, encoded by a rat cDNA) (rat, UniProt P0DP29 1-149). Kind of test: cryo-EM structure.

B1: bovine endothelial nitric oxide synthase (eNOS) with the phosphomimetic S1179D substitution (enzyme)
chain: MGNLKSVGQEPGPPCGLGLGLGLGLCGKQGPASPAPEPSRAPAPATPHAPDHSPAPNSPTLTRPPEGPKFPRVKNWELGSITYDTLCAQSQQDGPCTPRCCLGSLVLPRKLQTRPSPGPPPAEQLLSQARDFINQYYSSIKRSGSQAHEERLQEVEAEVASTGTYHLRESELVFGAKQAWRNAPRCVGRIQWGKLQVFDARDCSSAQEMFTYICNHIKYATNRGNLRSAITVFPQRAPGRGDFRIWNSQLVRYAGYRQQDGSVRGDPANVEITELCIQHGWTPGNGRFDVLPLLLQAPDEAPELFVLPPELVLEVPLEHPTLEWFAALGLRWYALPAVSNMLLEIGGLEFSAAPFSGWYMSTEIGTRNLCDPHRYNILEDVAVCMDLDTRTTSSLWKDKAAVEINLAVLHSFQLAKVTIVDHHAATVSFMKHLDNEQKARGGCPADWAWIVPPISGSLTPVFHQEMVNYILSPAFRYQPDPWKGSATKGAGITRKKTFKEVANAVKISASLMGTLMAKRVKATILYASETGRAQSYAQQLGRLFRKAFDPRVLCMDEYDVVSLEHEALVLVVTSTFGNGDPPENGESFAAALMEMSGPYNSSPRPEQHKSYKIRFNSVSCSDPLVSSWRRKRKESSNTDSAGALGTLRFCVFGLGSRAYPHFCAFARAVDTRLEELGGERLLQLGQGDELCGQEEAFRGWAKAAFQASCETFCVGEEAKAAAQDIFSPKRSWKRQRYRLSTQAEGLQLLPGLIHVHRRKMFQATVLSVENLQSSKSTRATILVRLDTAGQEGLQYQPGDHIGICPPNRPGLVEALLSRVEDPPPPTESVAVEQLEKGSPGGPPPSWVRDPRLPPCTLRQALTFFLDITSPPSPRLLRLLSTLAEEPSEQQELETLSQDPRRYEEWKWFRCPTLLEVLEQFPSVALPAPLLLTQLPLLQPRYYSVSSAPNAHPGEVHLTVAVLAYRTQDGLGPLHYGVCSTWLSQLKTGDPVPCFIRGAPSFRLPPDPYVPCILVGPGTGIAPFRGFWQERLHDIESKGLQPAPMTLVFGCRCSQLDHLYRDEVQDAQERGVFGRVLTAFSREPDSPKTYVQDILRTELAAEVHRVLCLERGHMFVCGDVTMATSVLQTVQRILATEGDMELDEAGDVIGVLRDQQRYHEDIFGLTLRTQEVTSRIRTQDFSLQERHLRGAVPWAFDPPGPDTPGP
Regarding B1, the binding result is “binds”.
